Data from the RNAGym collection of RNA variant scans (doi:10.7554/elife.80360).

B1: Hairpin Ribozyme (parent)
chain: GUCCUCUUUCACGUGCGCGUGAAAGAGAGAAGUGAACCAGAGAAACACACGUUGUGGUAUAUUACCUGGUA

Variants of: B1
Test: self-cleavage, relative activity (ratio to wild type); higher = more cleavage; co-transcriptional

Variant	self-cleavage
G17U C50U	0.326
G17U C50A	0.232
G17C A23C	0.603
G17C A23U	0.572
C18A A47U	0.181
G17U G40A	0.342
G17U G40C	0.18
G17C A35C	1.04
G17C A35G	0.801
C18U A41U	1.21
C18U A43C	0.164
G19A C48G	0.153
G19A C48U	0.179
G17C A43C	0.118
G17C A43G	0.131
C18U U53C	1.03
G17C C37U	0.542
G17A G68U	0.243
C18G G42U	0.279
C18G G42A	0.179
G17C G19U	0.502
C18G C38U	0.44
C18G G27A	0.407
C18A G32U	0.135

Variant	self-cleavage
C18A C38G	0.213
C18A C38U	0.526
G17U A49C	0.177
C18U C46A	0.252
G17U C65G	0.269
G17U C65A	0.892
G17A U62G	0.0926
G17A U62C	0.166
C18U U55C	0.318
G17U G42C	0.281
C18G A49G	0.344
C18G A26G	0.828
C18U C66U	0.554
C18A A35C	1.2
G17U U63A	0.128
G17C A36U	0.356
G17A U20C	1.13
G19A A61C	0.169
G19A A45C	0.108
G19A A45G	0.195
C18A U20C	0.97
C18G G69U	0.162
G17A G25U	0.494
C18U A47G	0.15

Variant	self-cleavage
C18A A30U	0.16
C18U U33C	0.172
C18U U33G	0.0901
C18G U63C	0.276
C18G U63G	0.27
G17A C66G	0.268
C18A U58A	0.577
C18A U58G	0.652
G17U A26U	0.632
C18U G54C	0.543
G17C A41U	1.27
G19A C38A	0.153
C18A C46G	0.12
G17A G51U	1.06
G17C A24C	0.614
C18A A31U	0.0438
C18A A31G	0.746
C18U U52G	0.859
C18U U52C	0.928
C18G A71C	1.35
G19A A23C	0.763
G19A A23U	0.711
G17U G19A	0.629
C18A G54U	0.62

Variant	self-cleavage
C18U C37A	0.329
C18U C37G	0.352
C18G G29C	0.133
G17C C65G	0.339
G17C C65U	0.24
C18G A44G	0.113
C18A A49C	0.208
C18G A43G	0.0801
G17C G25A	0.417
G17C G25U	0.505
C18G C46U	0.0966
G17A G19U	1.02
C18G G51C	1.01
C18A G34C	1.56
C18A A26C	0.527
C18A A26G	0.888
C18A A26U	0.898
C18A A36C	0.711
C18A U67G	0.329
C18A U67A	0.191
C18A A24G	0.95
C18U A23U	0.997
C18U A23C	0.898
G17A U52A	0.912

Variant	self-cleavage
C18G G32C	0.0857
G17U C48U	0.11
G17U C48G	0.0807
C18U A24U	0.844
C18U A24G	1.04
C18G A24C	0.731
C18G A24G	0.927
G17U C37G	0.256
G17U C37U	0.564
G17C A71C	1.18
G17C A71G	0.694
C18A G68A	0.272
G19A A26U	0.563
C18U A26C	0.525
G17U A23G	0.632
G17U A23C	0.898
C18U G57C	0.157
C18A U55A	0.364
C18A U55G	0.296
G17C C66U	0.346
G19A A64G	0.579
G17C C46U	0.113
G17U G25C	0.682
G17U G25A	0.653

Variant	self-cleavage
G17A G57A	0.228
G17A G57U	0.301
C18U A71U	0.832
C18U G27A	0.433
C18U A36C	0.65
C18U A36U	0.634
G17U A71C	1.39
G17U A45C	0.156
G17C A31C	0.172
G17C A31U	0.0868
C18U G34A	1.3
C18U A30U	0.203
C18G U33G	0.123
C18G U33C	0.164
C18A C65G	0.091
C18U G56A	0.135
C18G A28C	0.445
C18G A28G	1.11
C18G G40C	0.0865
C18G G40U	0.187
G17C C48A	0.173
G17U A43U	0.0903
G17U A43C	0.0947
C18A G21C	0.885

Variant	self-cleavage
C18A G21A	0.895
C18U G19U	1.1
G17U U20A	0.59
G17C U62A	0.115
G17U A64C	0.245
G17U A64U	0.16
C18A G19U	0.923
G17U U62C	0.138
C18A G27U	0.332
G17A C65G	0.485
C18G G21C	0.706
C18G G21U	0.651
G17U G69C	0.296
G17C A44C	0.136
G17C A44G	0.121
C18A A28C	0.492
C18A A28G	1.43
G17A U58G	0.78
G17A U58C	0.869
C18U U62A	0.225
G19A A28C	0.417
G17C A30G	0.0659
G17C A30U	0.118
C18G G19A	0.907

Variant	self-cleavage
C18G G19U	0.88
C18A U70A	0.916
C18A A39C	0.538
C18A A39U	0.345
G17C G54U	0.417
C18A A23G	1.02
G17C U60A	0.582
G19A C46A	0.176
G19A C46U	0.165
C18G U62A	0.2
C18G U62C	0.2
G17A G54U	0.667
G17A G54C	0.429
C18G G56U	0.2
G17U U60C	1.35
G17C A28G	0.957
G17C A28U	0.28
G17C A28C	0.347
G17U U52G	0.8
G17U U52A	1.21
G17U U55G	0.351
G17C C18U	0.902
C18U A28C	0.66
C18U A28U	0.606

Variant	self-cleavage
G17U G68A	0.258
C18U A45G	0.174
C18U A45U	0.109
C18U U60C	1.28
C18U U60G	0.719
C18U A22G	0.784
C18U A22C	0.949
C18U A22U	1.1
C18G A35C	0.797
C18G G25C	0.454
C18G G25U	0.47
G19A A41G	0.754
G17U A47C	0.347
G17A G21U	0.901
C18U G51U	0.993
G17U U33A	0.116
C18A C37G	0.351
C18G U20G	0.724
C18U G25A	0.703
C18U G25C	0.491
C18G A47G	0.198
G19A A36G	0.997
G17C G27C	0.154
G17C G27U	0.116

Variant	self-cleavage
G17C G27A	0.419
G19A A59G	0.2
G17C G68C	0.238
G19A A47C	0.308
G17A G27C	0.074
C18U U58A	0.657
G17U A31G	0.6
C18A A59C	0.159
G17C G32A	0.131
G17C G32U	0.0811
G17C G69C	0.124
G17A G69U	0.203
C18A A41U	1.37
G17C G56C	0.171
G17C G56U	0.185
G17C U63C	0.276
G17C A49C	0.146
C18A A22C	1.04
C18A A22U	0.794
C18G A39C	0.587
C18G A39G	0.281
C18G A39U	0.474
G17A U33A	0.12
G17A U33G	0.0712

Variant	self-cleavage
G17A G40C	0.153
C18A G51U	1.12
C18A G51C	0.896
G19A A24G	0.737
G19A A49C	0.131
G19A A49U	0.17
G17U A59G	0.192
C18A G69C	0.403
C18A G69U	0.339
G17U G57C	0.151
G17U G57U	0.264
G17U G57A	0.201
G17U G56A	0.194
G17U G56C	0.126
G17C U52G	0.821
G17C U52A	0.816
G17U G54U	0.579
G17U G54A	0.642
G17C G40A	0.253
G17C G40C	0.168
G17U A24U	0.865
G17C U58G	0.432
G17C U67G	0.161
G17U G21A	0.491

Variant	self-cleavage
G17C G42U	0.134
G17C G42C	0.306
C18G G68C	0.266
G17C A22U	0.644
C18A U63A	0.13
C18A U63G	0.204
C18G C65U	0.213
C18G C65A	0.871
C18U G69A	0.476
C18A A61U	0.138
C18A A61G	0.25
C18A A61C	0.132
G17C G29C	0.113
G17C A45U	0.12
C18U A35U	0.802
G17C A26G	0.709
G17C A26U	0.414
C18A A45G	0.187
G17U A39G	0.29
C18A G56C	0.136
C18G G57C	0.194
C18G U55A	0.145
C18G U55C	0.233
G17U G27U	0.239

Variant	self-cleavage
G17U G27A	0.374
G17U G27C	0.165
G17U C38G	0.158
G17A C50A	0.21
G17C A64C	0.186
G17U A30G	0.134
G19A C66A	0.314
C18A C48G	0.0794
G19A A31C	0.136
G19A A31U	0.176
G19A A71C	1.38
C18A A44C	0.219
G17A U60C	1.36
G17C U55C	0.216
G19A C37A	0.264
C18A C50G	0.309
G17C A59U	0.122
G17U A44G	0.273
G17U C18G	0.979
G17U C18U	0.926
G17U C18A	0.966
G17C G51A	0.718
G17C G51C	0.668
G17U G29C	0.105

Variant	self-cleavage
G19A A30U	0.14
C18G U70G	0.537
C18G C50U	0.24
C18G A30U	0.0888
C18G A30C	0.275
C18G A23C	0.746
C18G A36C	0.473
G19A A22U	0.531
G19A A22G	0.714
C18G A45U	0.228
G17C G21C	0.494
G17C G21A	0.618
C18U C50G	0.217
G17C C50A	0.248
G17C C50U	0.286
C18U C38U	0.529
C18U U70G	0.973
C18U G42C	0.416
C18U G42A	0.167
C18A G57U	0.439
G17A G32U	0.123
G17A G32C	0.0599
